Source: the DeepSol protein solubility set

Experiment: soluble on expression in E. coli; label from the status in PepcDB or PDB records

Row | Sequence | soluble on expression in E. coli
1 | MSLTENKGTPEVGWSFDTRYTDLPSMMFSNVEPEPVEAPKLVILNDSLAQSLGLDPVALQHQNSIAVLAGNEVPKGAAPLAQAYAGHQFGHFTMLGDGRAILLGEQITPNGERFDIQLKGSGRTPYSRQGDGRAALGPMLREYIISEAMHALGIPTTRSLAVVTTGESVFRETVLPGAILTRVAASHIRVGTFQFVANAGSEEELKALADYTLARHFPEVEADRENRYLALLQKVIKRQAELIAKWQLVGFIHGVMNTDNMTISGETIDYGPCAFMDVYDPETVFSSIDTRGRYAYGNQPRIGAWNLARFAEALLPLLADDQDEAIKLAEAEISNYAEQFEHHWLNGMRAKLGLFNEESEDLSLIKDLLEVMHKHKADFTNTFRALTFDEQEETGLHDKLEFTEWHERWQARLGRQEQTKDDSHNLMKMSNPAVIPRNHRVEEALEAAVEQEDYQVMERLLKVLANPFAHSPEQKAYAKLPAPCAIPYRTYCGTEGHHHHHH | not soluble
2 | MKYKIFASTTPQTEPVLNKLRAVLKTWQAVENGYEYVFVLGGDGFFVSTLANYNCDSCKVVGINTGHIGFYTSFNGDDLDENFISKLTSFEFKKINLLEVKTKNHSFLVLNELAVYTNTAYPINIFIDDNHWESYRGSGLLIGPRTGSTALAKSAKGAVIFPNVDVVQIIELNPLLHPNQITIQSPIILPMQTKVEFRIKKAFKAEQFPNFYADGIKLDLKNEDTSISFQLVLSRSMFHASLKTKDFIDKLKSTFIKQSLEHHHHHH | soluble
3 | MNWNKRLLDTPIIGDITKKIVSAKASREAHNISDHFTQFLQPCVAVSQTLKEEAFKIRHNVYCEELAFEEVRDNGQETDEFDHQSMFSLIKHKPSGTFTSCVRLVTSSGPDELLPIEKYCMGSITNEELSPKRFNRNEIAEISRLAVKSDFRRRKADNYKGSGTGVISEITYSETELRCFPFIAIGLYMAAATMSMNTGIRHVYVMMEPRLARSMKFIGINFQQLGPPVDYHGLRAPYYINPEIFMKNLSPGFKSLFSIIEEDICSQLNQLDLA | not soluble
4 | QPDPPCGGRLNSKDAGYITSPGYPQDYPSHQNCEWIVYAPEPNQKIVLNFNPHFEIEKHDCKYDFIEIRDGDSESADLLGKHCGNIAPPTIISSGSMLYIKFTSDYARQGAGFSLRYEIFKTGSEDCSKNFTSPNGTIESPGFPEKYPHNLDCTFTILAKPKMEIILQFLIFDLEHDPLQVGEGDCKYDWLDIWDGIPHVGPLIGKYCGTKTPSELRSSTGILSLTFHTDMAVAKDGFSARYYLVHQEPLENFQCNVPLGMESGRIANEQISASSTYSDGRWTPQQSRLHGDDNGWTPNLDSNKEYLQVDLRFLTMLTAIATQGAISRETQNGYYVKSYKLEVSTNGEDWMVYRHGKNHKVFQANNDATEVVLNKLHAPLLTRFVRIRPQTWHSGIALRLELFGCRVTDAPCSNMLGMLSGLIADSQISASSTQEYLWSPSAARLVSSRSGWFPRIPQAQPGEEWLQVDLGTPKTVKGVIIQGARGGDSITAVEARAFVRKFKVSYSLNGKDWEYIQDPRTQQPKLFEGNMHYDTPDIRRFDPIPAQYVRVYPERWSPAGIGMRLEVLGCDWTHHHHHH | soluble
5 | MGSDKIHHHHHHMAIILGGMVPRPPWKYRLLAAIHAHRNAGDPGADPLVRRAVERLVAVTSRVVFGVEKPGWITSGASEGNLLALYTLREEGYRRVVAFDTSHYSIKKSALTLSMELDLLPTHGGRPRLDLLERRITPDSVVVATVGTTQEGLVDPVEEIAGVAESVGAAVHVDAAYGGYIARFLTGKARFRLEPPVMTVVVDAHKIPEAPPPAGVILASKQKLLDNLWFESPYIPTGRQFGILGTRPGGPIVAAWRRVEDLERNPGFPRLASILMRRLRKTLKALERLGYETPVTPDLPVACATHPRLGEVLERLKASGVRVYRCRSPKPCLHVTNYGRLCRARLGSSRSPRGCLRKPLGASLGNPGVTGLGL | not soluble
6 | SRQETGGNLMSEPLLIARTPDTELFLLPGMANRHGLITGATGTGKTVTLQKLAESLSEIGVPVFMADVKGDLTGIAQAGTASEKLLTRLKNIGVNDWQPHANPVVVWDIFGEKGHTVRATVSDLGPLLLARLLNLNDVQSGVLNIIFRIADDQGLLLLDFKDLRAITQYIGDNAKSFQNQYGNISSASVGAIQRGLLSLEQQGAAHFFGEPMLDIKDWMRTDANGKGVINILSAEKLYQMPKLYAASLLWMLSELYEQLPEAGDLEKPKLVFFFDEAHLLFNDAPQVLLDKIEQVIRLIRSKGVGVWFVSQNPSDIPDNVFGQLGNRVQHALRAFTPKDQKAVKTAAQTMRANPAFDTEKAIQELGTGEALISFLDAKGSPSVVERAMVIAPCSRMGPVTEDERNGLINHSPVYGKYEDEVDRESAYEMLQKGFQASTEQQNNPPVKGKEVAVDDGILGGLKDILFGTTGPRGGKKDGVVQTMAKSAARQVTNQIVRGMLGSLLGGRKR | not soluble
7 | MLELKSDDREYTANMLLLNDTDKTVKHKTVGEFYQDLIKQYANESKCGNRLIYKSSYNSLYTFTKGNLDIPFSAINPSWLCNYEKWLRSKGNKETTMSLMLRTLRSTYNKAIENKYARKSDYPFNEYKIGKFDVSTEKRAIAKADIMKLTADISSVGKRQYVQLSKDIFMFSYLCGGINFTDIANLTSKNIVDGKRLHYIRQKTGKLIKLGLSDAALRIIERYAPDSHGYLFPILNVEVHKTALQKQNRIHKILSKVNSNLKLIATQSGLDINLTTYVARHSFATVLKKSGVNIALISEALGHSDLATTQIYLDSFDNEQIDDAMKNLL | not soluble
8 | MSLSFTSTIKVVIADDHAILREGLKQILAETEDIEVVADAKNAAEAIKLAGTKGLDVVVLDISLPDRSGIEACNIIKKEHPGVAVLMLSMHREDAYAIRALRAGAVGYLSKQSASDQLVTAIRTVAKGKKYISAEVALALADQVSGGLEKPIHDTLSNREFQTLTMIASGLSVSEIAENLSLSVKTVSMYRARLLEKLNLRHNAELTHYAIKNNLIDEGHHHHHH | soluble
9 | MKRLLVFLPLLLLACAPKPEAEAPQTTAPLRVQVRTLKAEPGLLTREARASANVVAEKESLVAAGASGRVVRTLPAGTRVRAGEGVVFLDPAPFQEALAQAKLALRQAEENLARAEAQTEGNRKALEAQLAAAEAQLAAAKRRYEEGKALLALGALAPLELKGLEAQYLQAQSAYENAKEALARLEREDDLRLLRLQVEAARLQVQQAERNLKESVVRAPFAGEVVEVYVKEGEFTGAGSRAFRLATTDRLLVKVYLPPERAAALTEDTAFRVRQNGKEVEARLQAKSDLPGQNRLVEVTLRPTGPLLPGAAEVRYPEVLAEGLLLPAGAVRTEDGEAFVYVVEEGRARKRPVRLLAQEGGRAAVAGLEAGEAVVYPVPEGLEDGDLVEVVP | soluble
10 | GVDRDYLQSEYGVLKAGQCYKVVRSFRDYRNINYERGDVMRFLGSNFVPYESGLSLFFDKNGSERQIMLCVRPEFQMEIAHHLDSYFCKLDDN | soluble
11 | MNPNTVPTPARGAIRWEAHTCLPLLPNQDMSALLRYRDNGFHHVSVNVGMDMTAVGDVMQVIAGFRQWLIKHPENFMLAGTLADLQRARVQDKLAVSFDLEGSNMLLQDQAMVRLYADLGVRQMLLAYNLDNSCAGGCHGSGMGLTALGREFVGAINSAGIVMDCSHASKRASMEIIELSQRPVVFSHTNIKAVYDHPRTVDDEQIMACVESGGVIGLTGMGIFLGDPQASVEAFVRQIDYLAERAGTAHIGLGLDIELHPDDKDLAEGVNEDDWWPKEFYGGINGHRQLQPEALGQVAEALLRIGYDAAQINGIFGGNFMRVAQATWP | not soluble
12 | MQIVEAIYEDGVLKLLKNLKLKEHSKVIIKVIDEEEIEKILDSRDYLEHHHHHH | not soluble
13 | MTTAHRPTFHPARGGTARGEGDLSKLSNQYSSKDMPSHTKMKYRQTGQETEADLRKKDLRRELEDKERNAIREKRARDSASSSSSHSKRQRMDQIAAESAASVDADEAVDELNSSDDDDSDEDDTAALMAELEKIKKERAEEKAARDEEIKEKEEKQRMENILAGNPLLNDTPAGSSTSGGDFTVKRRWDDDVVFKNCAKGVEERKKEVTFINDAIRSEFHKKFMDKYIK | soluble
14 | MSLVYMAINAVAGTIREFSPKDIESVYRIAQTSLTEYYTQALILDLHREWPESFMVYTVAGSVVGFIVGSKYSRTEARILLFAVDERFRRMGVGSALMDAFLSLCREQNMLSVRLEVRTDNDEAIRFYKKYGFVITAMLPNYYSDSSNAYTMWRIVEGHHHHHH | not soluble
15 | MPKNKGKGGKNRRRGKNENDFMKRELDLKEEGQEYGQVSKMLGNGRVQVFCFDGKQRVCHIRGKLRKKVWINVGDIILVGLRDYQDDKGDVILKYTPDEARRLKNEGLIPENAKLNENDEQDEGEVEFLDHVGDEGEAGEAKSDSDSSDSDSEKSDEEAGSDKEEESDDDSEEESDEDSDDSDNIREEDLAAGRGFKEDTRRGGNRGGKNKYGKRR | soluble
16 | PTSSTTATLVMGDALAVALLKARGFTAEDFALSHPGGALGRKLLLRVNDIMHTGDEIPHVKKTASLRDALLEVTRKNLGMTVICDDNMMIEGIFTDGDLRRVFDMGVDVRRLSIADVMTPGGIRVRPGILAVEALNLMQSRHITSVMVADGDHLLGVLHMHDLLRA | not soluble
17 | MIEFNHVSKTFGDQQAVSDLNLHFSEGSFSVLIGTSGSGKSTTLKMINRLVEHDSGTIRFAGEEIRSLPVLELRRRMGYAIQSIGLFPHWTVAQNIATVPQLQKWSRARINDRIDELMALLGLESALRDRYPHQLSGGQQQRVGVARALAADPQVLLMDEPFGALDPVTRGALQQEMTRIHQLLGRTIVLVTHDIDEALRLADHLVLMDGGHVIQQGSPLSMLTSPENDFVQAFFGRSELGVRLLSLRSVGDYVRRHEQLSGDALVEEMTLRDALSMFVARRCDVLPVANQQGEPCGTLHFRDLLSETSPRETTV | not soluble
18 | GPGSMNPLSTRRLGGTVTPGSALSGTCYVSHITRPARTMCWMKLAVFTQFPVVPSLAGTQVQGRQDLLASTAGAGTPEEASLFLQIELFDDECPQLCANFRRLCNGQSSTRQGQVYCFQGLTPSYCGTYFHKIIPSYCVQGGDITMRVKPGGTNSYSSAGRTWLPDEFKKRRHNEIGLVSMANNGPNSNGSQFFITTSAAHERAFNGRHCCIGHVVRGLDAFIALVAPFGNIEGHPSKYAVVVDCGEGEAPTLMSASSSPAAVFQASMAISETGTAGSSPAADSRSVSVEEAPAELDAHYCEQPPQLQLQHRQAADGTGVMAALSPSDAAAAAAPLSISPAQPLKSSLKEKTTAVSEAAKTHAKHVTYQL | not soluble
19 | MAHHHHHHMGTLEAQTQGPGSMDEVLLVKKLVEDAIVPTRGSKCAAGIDLYSNTNFIIQPHERFLVSTGVSVQIPHQCYGRIAPRSSLALKYGIDVGAGVIDEDYRGEIKVILFNHSNEIFNGRKGDRIAQLIIERISYCRISEVKELNTTDRGTNGFGSTGK | soluble
20 | MSEKRLPLKPVLRIDFPPGERLGHGKVELMQLIAETGSISAAGRAMDMSYRRAWLLVDALNHMFRQPVICSQRGGKQGGGAALTVFGAELLERYRGMEERMNEALREDIDWLEANRNPQDALNRDREPPTL | soluble
21 | MNSVGEACTDMKREYDQCFNRWFAEKFLKGDSSGDPCTDLFKRYQQCVQKAIKEKEIPIEGLEFMGHGKEKPENSSLEHHHHHH | not soluble
22 | MAMGRTTQFTLDEVAKHADKDSCWLVIDGKVYAVEKFLNEHPGGEDVLLETAGRDATREFEDVGHSKSAREQLKEFYIGDVREPTAEELAAKRAVQASAAAERRDGDGVRANGLGKERLFAGGAFGAEPLSGGSSTWTLLKRLFVPVCIAVLVYLVREYSKQVQTGG | not soluble
